Assay [1] addresses T1, DHT03_variant_ABC-2 chain B.
T1 chain: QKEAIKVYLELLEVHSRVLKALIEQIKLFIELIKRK
Description: native MS; loop-connectivity variant of DHT03, chains of one ABC heterotrimer.

Assay [2] has as its target T2, DHT03_variant_ABC-2 chain C.
T2 chain: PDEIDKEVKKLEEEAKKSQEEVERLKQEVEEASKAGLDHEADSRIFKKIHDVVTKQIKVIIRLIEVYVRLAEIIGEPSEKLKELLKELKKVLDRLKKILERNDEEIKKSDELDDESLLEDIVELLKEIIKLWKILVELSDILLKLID
Described as above.

The target in assay [3] is T3, DHT03_2arm_A21/B62/C chain B.
T3 chain: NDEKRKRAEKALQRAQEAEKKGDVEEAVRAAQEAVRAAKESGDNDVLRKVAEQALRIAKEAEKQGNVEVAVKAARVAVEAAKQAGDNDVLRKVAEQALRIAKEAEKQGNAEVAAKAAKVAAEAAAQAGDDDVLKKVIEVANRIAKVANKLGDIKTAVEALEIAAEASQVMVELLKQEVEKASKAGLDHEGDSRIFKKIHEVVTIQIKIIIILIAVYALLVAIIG
Description: co-expression, SEC, native MS, SAXS; chains of one ABC heterotrimer.

Assay [4] has as its target T4, DHT03 chain C (SEQ ID NO: 65).
T4 chain: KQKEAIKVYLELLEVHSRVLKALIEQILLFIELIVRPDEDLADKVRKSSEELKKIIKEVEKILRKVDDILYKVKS
Described as above.

In assay [5] the target is T5, DHT03_2arm_A21/Bt18/C chain B.
T5 chain: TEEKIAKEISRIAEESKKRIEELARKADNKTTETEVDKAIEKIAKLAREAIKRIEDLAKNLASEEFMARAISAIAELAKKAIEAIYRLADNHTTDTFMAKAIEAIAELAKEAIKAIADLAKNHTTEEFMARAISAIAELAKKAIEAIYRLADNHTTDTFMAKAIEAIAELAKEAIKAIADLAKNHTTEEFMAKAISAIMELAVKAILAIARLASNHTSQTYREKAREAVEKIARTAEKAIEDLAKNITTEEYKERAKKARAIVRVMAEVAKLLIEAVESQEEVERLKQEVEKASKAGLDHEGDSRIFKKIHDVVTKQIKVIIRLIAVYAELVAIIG
The description is as above.

For assay [6], the target named is T6, DHT03_2arm_A21/B14/C chain B.
T6 chain: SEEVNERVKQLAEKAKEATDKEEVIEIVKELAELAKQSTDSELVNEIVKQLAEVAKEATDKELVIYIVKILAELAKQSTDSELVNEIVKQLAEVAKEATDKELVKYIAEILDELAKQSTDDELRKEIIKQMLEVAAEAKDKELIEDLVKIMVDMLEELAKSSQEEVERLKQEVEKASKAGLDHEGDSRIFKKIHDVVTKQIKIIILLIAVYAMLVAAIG
Described as above.

For assay [7], the target named is T7, DHT03_2arm_A21/B21/C long chain B.
T7 chain: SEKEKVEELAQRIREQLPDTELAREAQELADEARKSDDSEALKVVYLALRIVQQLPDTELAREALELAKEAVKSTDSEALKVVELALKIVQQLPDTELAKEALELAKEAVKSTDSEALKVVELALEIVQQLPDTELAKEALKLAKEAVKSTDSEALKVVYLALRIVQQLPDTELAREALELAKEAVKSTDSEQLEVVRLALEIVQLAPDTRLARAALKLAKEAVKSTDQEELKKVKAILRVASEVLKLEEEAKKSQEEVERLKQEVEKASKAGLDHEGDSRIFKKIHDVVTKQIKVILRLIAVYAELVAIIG
The description is as above.

For assay [8], the target named is T8, DHT03 chain C (SEQ ID NO: 59).
T8 chain: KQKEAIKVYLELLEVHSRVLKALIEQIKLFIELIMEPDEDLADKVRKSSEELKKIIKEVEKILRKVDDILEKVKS
Kind of assay: X-ray crystal structure, 3.35 A. How it is done: Purified DHT03_2arm_A21/B21/C (long) protein at a concentration of 41 mg/mL was used to conduct sitting drop, vapor-diffusion crystallization trials using the JCSG Core I-IV screens (NeXtal Biotechnologies). Crystals of DHT03_2arm_A21/B21/C long grew from drops consisting of 100 nL protein plus 100 nL of a reservoir solution consisting of 2M (NH4)2SO4, 0.1M sodium acetate pH4.6 at 18° C., and were cryoprotected by supplementing the reservoir solution with 2.2M sodium malonate pH5. Native diffraction data was collected at APS beamline APS-23-ID-B, indexed to P1 and reduced using XDS⁴⁸. The structure was phased by molecular replacement using Phaser™. The chain A of a set of ˜49 lowest energy predicted models from Rosetta™ were used as search models. Several of these models gave clear solutions. Chain B and Chain C were fitted manually in Coot™ and rigid body refinement by Phenix™. The following model building and refinement were done by Coot™ and Phenix™.

In assay [9] the target is T9, DHT03_variant_ABCD-1 chain D.
T9 chain: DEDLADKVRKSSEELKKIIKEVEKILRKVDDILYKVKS
Description: native MS; loop-connectivity variant of DHT03, chains of one ABCD heterotetramer.

Assay [10] concerns the target T8, DHT03 chain C (SEQ ID NO: 59). Description: tricistronic expression, SEC, native MS; chains of one ABC heterotrimer. The source says: Genes encoding 85 heterotrimers in a tricistronic expression vector were obtained, and the proteins were expressed in E. coli and purified via IMAC with only one chain having the 6×His-tag. Nine of the designs (FIG. 3a) had monodisperse SEC peaks (FIG. 3b), were almost exclusively ABC by nMS, and had good SAXS fits to the design models (Table 7). […] Eight of the designs are parallel heterotrimers, while DHTO9 is an antiparallel heterotrimer. […] For 3 other designs, only the ABC heterotrimer was determined to form by nMS (when the respective SEC fraction was analyzed) but the heterotrimer SEC peak was preceded by soluble aggregate that would make building with these constructs difficult downstream. We explored the dependence of cooperativity on connectivity between the three chains by changing the positions of the loops across different helices in DHT03, while keeping the rest of the interface intact. […] The ability to sustain alternate loop closures increases the number of heteromeric building blocks available for future nanostructure assembly applications and may enable rigid fusion of functional domains to the different termini available.
Samples were analyzed by online buffer exchange native mass spectrometry (nMS) to evaluate sample purity and accurately determine oligomeric states⁴². […]

For HEELADEVRKSSEELKKIIEEVEKILRKVDDILYKVG (designed binder) [DHT03_variant_ABC-2 chain A], the binding result in assay [1] and in assay [2] was “binds” in each case.

B1: DHT03 A21 fusion chain A (SEQ ID NO: 63) (designed binder)
chain: SEKEKVEELAQRIREQLPDTELAREAQELADEARKSDDSEALKVVYLALRIVQQLPDTELAREALELAKEAVKSTDSEALKVVYLALRIVQQLPDTELARLALELAKKAVEMTAQEVLEIAKAALKAAQAFPNTELAELMLRLAEVAARVMKELERNDEEIKKSDELDDESLLEDIVELLKEIIKLWKILVEVSDVMLKLIS
On to B1, for which the binding result in [3], in assay [4] and in [5] was “binds” each time.

B2: DHT03 A21 fusion chain A (SEQ ID NO: 66) (designed binder)
chain: SEKEKVEELAQRIREQLPDTELAREAQELADEARKSDDSEALKVVYLALRIVQQLPDTELAREALELAKEAVKSTDSEALKVVYLALRIVQQLPDTELARLALELAKKAVEMTAQEVLAIAKAALKAAQAFPNTELAELMLRLAEVAARVMKELERNDEEIKKSDELDDESLLEDIVELLKEIIKLWKILVEVSDVMLKLIS
On to B2, for which the binding result in assay [6] is reported as “binds”.

B3: DHT03_2arm_A21/B21/C long chain A (designed binder)
chain: SEKEKVEELAQRIREQLPDTELAREAQELADEARKSDDSEALKVVYLALRIVQQLPDTELAREALELAKEAVKSTDSEALKVVELALKIVQQLPDTELAKEALKLAKEAVKSTDSEALKVVELALEIVQQLPDTELAKEALELAEEAVKSTDSEALKVVKLALEIVQQLPDTELAREALELAKEAVKSTDSEALKVVYLALRIVQQLPDTELARLALELAKKAVEMTAQEVLEIARAALKAAQAFPNTELAELMLRLAEVAARVMKELERNDEEIKKSDELDDESLLEDIVELLKEIIKLWKILVEVSDVMLKLIS
With B3, the binding result in assay [7] and in assay [8] was “binds” in each case.

B4: DHT03 chain A (designed binder)
chain: PEEEKLKELLKELKKVLDRLKKILERNDEEIKKSDELDDESLLEDIVELLKEIIKLWKILVELSDILLKLIS
For B4, the binding result in [9] and in [10] was “binds” in each case.

Values taken from patent US20240029824A1 (University of Washington, published 2024).
